Where a chain is given by its changes, count along the chain named. Several values for one entry are separate records, joined by “and”; a condition that tells them apart may be missing. Equal values may be shown once.

In test [1] the target is F protein (RSV F glycoprotein immobilised on the BIAcore sensor chip) (respiratory syncytial virus (RSV), UniProt P03420 26-524). Kind of test: BIAcore, immobilised F protein.
The target of test [2] is T1, F protein of MARM #13 (selected with A4B4 from MARM B9) (respiratory syncytial virus, strain …, UniProt P12568 26-574).
T1 construct: whole, on cells
As to the kind of experiment: IFA on MARM-infected HEp-2 cells.

For test [3], the target named is T2, F protein of RSV A/Long MARM B9 (respiratory syncytial virus, strain …, UniProt P12568 26-574).
T2 construct: whole, on cells
Kind of test: IFA on MARM-infected HEp-2 cells.

Test [4] deals with T3, F protein of RSV A/Long MARM #11 (selected with A4B4) (respiratory syncytial virus, strain …, UniProt P12568 26-574).
T3 construct: whole, on cells
Kind of test: IFA on MARM-infected HEp-2 cells.

The target of test [5] is T4, F protein of RSV A/Long MARM #9 (selected with A4B4) (respiratory syncytial virus, strain …, UniProt P12568 26-574).
T4 construct: whole, on cells
Kind of test: IFA on MARM-infected HEp-2 cells.

The target in test [6] is T5, F protein of RSV A/Long MARM #10 (selected with A4B4) (respiratory syncytial virus, strain …, UniProt P12568 26-574).
T5 construct: whole, on cells
Kind of test: IFA on MARM-infected HEp-2 cells.

Test [7] has as its target T6, F protein of RSV A/Long MARM #6 (selected with A4B4) (respiratory syncytial virus, strain …, UniProt P12568 26-574).
T6 construct: whole, on cells
Kind of test: IFA on MARM-infected HEp-2 cells.

Test [8] has as its target T7, F protein of wild type RSV A/Long (respiratory syncytial virus, strain …, UniProt P12568 26-574). As to the kind of experiment: cell-based or functional assay.
The target in a further test is Bac-F (UniProt P03420 26-524). As to the kind of experiment: BIAcore, Mab vs Bac-F, 1:1.
The target of test [9] is T8, F protein of RSV A/Long MARM B15 (respiratory syncytial virus, strain …, UniProt P12568 26-574).
T8 construct: whole, on cells
As to the kind of experiment: IFA on MARM-infected HEp-2 cells.

Test [10] concerns the target T9, F protein of RSV A/Long MARM B2 (respiratory syncytial virus, strain …, UniProt P12568 26-574).
T9 construct: whole, on cells
Kind of test: IFA on MARM-infected HEp-2 cells.

Test [11] addresses T10, F protein of RSV A/Long MARM B1 (respiratory syncytial virus, strain …, UniProt P12568 26-574).
T10 construct: whole, on cells
Kind of test: IFA on MARM-infected HEp-2 cells.

Test [12] deals with T11, F protein of RSV A/Long MARM B13 (respiratory syncytial virus, strain …, UniProt P12568 26-574).
T11 construct: whole, on cells
Kind of test: IFA on MARM-infected HEp-2 cells.

Test [13] addresses T12, F protein of RSV A/Long MARM B10 (respiratory syncytial virus, strain …, UniProt P12568 26-574).
T12 construct: whole, on cells
As to the kind of experiment: IFA on MARM-infected HEp-2 cells.

The target of test [14] is T13, F protein of RSV A/Long MARM B7 (respiratory syncytial virus, strain …, UniProt P12568 26-574).
T13 construct: whole, on cells
As to the kind of experiment: IFA on MARM-infected HEp-2 cells.

The target in test [15] is T14, F protein of RSV A/Long MARM B14 (respiratory syncytial virus, strain …, UniProt P12568 26-574).
T14 construct: whole, on cells
As to the kind of experiment: IFA on MARM-infected HEp-2 cells.

The target of test [16] is T15, F protein of RSV A/Long MARM B6 (respiratory syncytial virus, strain …, UniProt P12568 26-574).
T15 construct: whole, on cells
Kind of test: IFA on MARM-infected HEp-2 cells.

Test [17] addresses T16, F protein of RSV A/Long MARM B4 (respiratory syncytial virus, strain …, UniProt P12568 26-574).
T16 construct: whole, on cells
Kind of test: IFA on MARM-infected HEp-2 cells.

Test [18] has as its target T17, F protein of RSV A/Long MARM B8 (respiratory syncytial virus, strain …, UniProt P12568 26-574).
T17 construct: whole, on cells
As to the kind of experiment: IFA on MARM-infected HEp-2 cells.

Test [19] concerns the target T18, F protein of RSV A/Long MARM B3 (respiratory syncytial virus, strain …, UniProt P12568 26-574).
T18 construct: whole, on cells
As to the kind of experiment: IFA on MARM-infected HEp-2 cells.

The target of test [20] is T7, F protein of wild type RSV A/Long. Kind of test: cell-based or functional assay. The source holds these as a separate data set.

B1: SYNAGIS® (antibody, V domains shown)
VH: QVTLRESGPALVKPTQTLTLTCTFSGFSLSTSGMSVGWIRQPPGKALEWLADIWWDDKKDYNPSLKSRLTISKDTSKNQVVLKVTNMDPADTATYYCARSMITNWYFDVWGAGTTVTVSS
VL: DIQMTQSPSTLSASVGDRVTITCKCQLSVGYMHWYQQKPGKAPKLLIYDTSKLASGVPSRFSGSGSGTEFTLTISSLQPDDFATYYCFQGSGYPFTFGGGTKLEIK
notes: also called SYNAGIS ®/SYNAGIS ® (HC/LC)
Consider B1, for which the koff is 0.000764 s⁻¹ and 0.000738 s⁻¹ and 0.000702 s⁻¹ in test [1]; 0.000515 s⁻¹ in the test with Bac-F. In addition, the kon in test [1] is 204000 M⁻¹ s⁻¹ and 189000 M⁻¹ s⁻¹ and 218000 M⁻¹ s⁻¹; with Bac-F it was 132000 M⁻¹ s⁻¹. The binding result in test [2], in test [3], in test [4], in test [5], in test [6] and in [7] was “no binding (tested: 250 ng/ml)” throughout. Moreover, the binding result in [9], in test [10], in test [11], in [12], in test [13] and in test [14] was “no binding (tested: 250 ng/ml)” in each case. Further, the binding result in test [15], in test [16], in test [17], in [18] and in test [19] was “no binding (tested: 250 ng/ml)” each time. In addition, the “EC50, RSV (Long) microneutralization” value in test [8] was 3.57 nM. The molecule also came in with a Kd with Bac-F of 3.9 nM. Further, the “number in parentheses after KD (fold vs SYNAGIS)” value in the test with Bac-F is 1 fold. Moreover, the “Mean IC50 (Control), RSV microneutralization” value in test [20] worked out at 0.535 µg/mL. The “Mean IC50 (Curve), RSV microneutralization” value in test [20] was determined as 0.453 µg/mL.

B2: A4B4 (monoclonal antibody) (antibody, V domains shown)
VH: B1 VH with S32A, D60H, S67D, S100D, T103F, W105F, A112Q
VL: B1 VL with K24S, C25A, Q26S, L27S, S28R, S51F, K52F, A54D
notes: also called A4B4/A4B4 (HC/LC)
As to B2, the binding result in test [2] is listed as “no binding (tested: 250 ng/ml)”. Besides, the binding result in test [4] was “no binding (tested: 250 ng/ml)”. The binding result in test [5] is on record as “no binding (tested: 250 ng/ml)”. Further, the binding result in test [6] is “no binding (tested: 250 ng/ml)”. For the same molecule, in [7], the binding result was “no binding (tested: 250 ng/ml)”. Further, in the test with Bac-F, the Kd was found to be 0.02 nM, the dissociation rate constant (koff) came out at 1.06e-05 s⁻¹, the kon stood at 434000 M⁻¹ s⁻¹ and the “number in parentheses after KD (fold vs SYNAGIS)” value is 195 fold. Further, in test [20], the “Fold Difference (Control IC50)” value was 35 fold; the “Fold Difference (Curve IC50)” value came out at 27 fold; the “Mean IC50 (Control), RSV microneutralization” value worked out at 0.0154 µg/mL; the “Mean IC50 (Curve), RSV microneutralization” value came out at 0.0171 µg/mL.
